From paper PMC7052086, “Functional characterization of NADPH-cytochrome P450 reductase and cinnamic acid 4-hydroxylase encoding genes from Scoparia dulcis L” (Botanical Studies, 2020)

System: NC(=O)C1=CN([C@@H]2O[C@H](COP(=O)(O)OP(=O)(O)OC[C@H]3O[C@@H](n4cnc5c(N)ncnc54)[C@H](OP(=O)(O)O)[C@@H]3O)[C@@H](O)[C@H]2O)C=CC1
Test: purified protein
Format: biochemical, Scoparia dulcis
Settings: 100 μM cytochrome c, varied NADPH; 28 °C, pH 7.5 in table footnote (methods: 25 °C, 50 mM Tris pH 7.4)

Sequence of SdCPR (Scoparia dulcis) (chain, as listed by the source): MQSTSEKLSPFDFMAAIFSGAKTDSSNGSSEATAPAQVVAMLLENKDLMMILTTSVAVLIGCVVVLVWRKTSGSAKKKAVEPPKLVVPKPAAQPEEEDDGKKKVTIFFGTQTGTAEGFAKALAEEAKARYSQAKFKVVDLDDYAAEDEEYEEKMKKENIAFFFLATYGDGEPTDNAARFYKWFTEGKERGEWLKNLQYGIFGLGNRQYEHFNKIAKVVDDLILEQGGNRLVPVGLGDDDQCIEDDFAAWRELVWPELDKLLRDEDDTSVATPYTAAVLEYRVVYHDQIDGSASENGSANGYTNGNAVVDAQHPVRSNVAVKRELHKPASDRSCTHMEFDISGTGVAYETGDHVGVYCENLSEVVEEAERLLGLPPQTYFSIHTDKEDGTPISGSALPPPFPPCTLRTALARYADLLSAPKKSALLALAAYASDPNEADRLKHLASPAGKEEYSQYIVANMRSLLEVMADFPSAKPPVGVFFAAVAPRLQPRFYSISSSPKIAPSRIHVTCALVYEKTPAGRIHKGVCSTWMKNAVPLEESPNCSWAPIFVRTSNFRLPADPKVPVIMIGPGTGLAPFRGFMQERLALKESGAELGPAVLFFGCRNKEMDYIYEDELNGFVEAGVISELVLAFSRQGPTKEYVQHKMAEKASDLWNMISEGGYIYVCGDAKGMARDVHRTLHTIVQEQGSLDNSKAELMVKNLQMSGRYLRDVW

For SdCPR (Scoparia dulcis), the Km was 4.6 ± 0.9 µM, the Vmax was 2.3 µmol/min/mg and the kcat was 2.96 ± 0.13 s⁻¹. It also gave a kcat/Km of 665000 M⁻¹ s⁻¹.
